The values that follow come from article PMC11162425.

The target in the test is Lcl C-terminal domain (Lcl-CTD, residues 252 to 401) (Legionella pneumophila strain 130b). Description: SEC-MALS.

On to “Lcl C-terminal domain (Lcl-CTD, residues 252 to 401) (domain or fragment)”, for which the stoichiometry N worked out at 3.

Broadly, the stoichiometry N is the number of molecules, sites or subunits per partner or assembly.
